How the values were obtained:
Assay in all cases: IP/MS, LZTR1 wild type-FLAG, U87
VPS18 = molecular target: T1, VPS18 (human, UniProt Q9P253 2-973)
T1 sequence (looked up): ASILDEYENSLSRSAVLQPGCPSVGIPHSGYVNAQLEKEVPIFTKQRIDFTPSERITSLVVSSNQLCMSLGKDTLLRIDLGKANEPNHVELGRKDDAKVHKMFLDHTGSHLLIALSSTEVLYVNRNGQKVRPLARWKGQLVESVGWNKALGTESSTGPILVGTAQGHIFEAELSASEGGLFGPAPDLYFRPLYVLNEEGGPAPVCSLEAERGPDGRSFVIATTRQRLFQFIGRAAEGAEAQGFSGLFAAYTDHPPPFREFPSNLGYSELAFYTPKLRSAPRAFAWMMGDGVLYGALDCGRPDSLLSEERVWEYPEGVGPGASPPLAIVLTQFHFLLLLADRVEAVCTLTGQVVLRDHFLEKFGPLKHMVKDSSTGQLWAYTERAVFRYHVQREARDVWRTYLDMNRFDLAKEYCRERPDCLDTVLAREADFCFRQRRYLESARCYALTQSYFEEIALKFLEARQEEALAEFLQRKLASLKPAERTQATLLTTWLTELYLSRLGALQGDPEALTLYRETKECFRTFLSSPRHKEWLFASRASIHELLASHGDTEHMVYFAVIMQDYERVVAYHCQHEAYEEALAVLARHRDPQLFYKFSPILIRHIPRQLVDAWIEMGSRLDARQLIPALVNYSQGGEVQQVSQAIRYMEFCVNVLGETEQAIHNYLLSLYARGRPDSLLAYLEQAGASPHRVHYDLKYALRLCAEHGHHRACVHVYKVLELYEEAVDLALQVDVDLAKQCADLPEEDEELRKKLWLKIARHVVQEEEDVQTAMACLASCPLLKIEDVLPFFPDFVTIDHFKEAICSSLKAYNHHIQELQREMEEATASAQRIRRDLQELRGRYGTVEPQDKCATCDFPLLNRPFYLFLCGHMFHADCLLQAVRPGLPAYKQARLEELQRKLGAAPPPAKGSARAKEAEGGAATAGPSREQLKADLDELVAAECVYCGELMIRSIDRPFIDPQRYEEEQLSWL
Summary of the method: (§1)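 Extracted peptides in 3% acetonitrile/0.1% formic acid ran on a 50 cm C18 column into an Orbitrap Fusion, with MaxQuant identification and spectral counting.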

TRIO = TRIO (human, UniProt O75962 1-3097, limits assumed)
Summary of the method: as §1

BUB1 = BUB1 (human, UniProt O43683 1-1085, limits assumed)
BUB1, sequence (O43683 whole entry): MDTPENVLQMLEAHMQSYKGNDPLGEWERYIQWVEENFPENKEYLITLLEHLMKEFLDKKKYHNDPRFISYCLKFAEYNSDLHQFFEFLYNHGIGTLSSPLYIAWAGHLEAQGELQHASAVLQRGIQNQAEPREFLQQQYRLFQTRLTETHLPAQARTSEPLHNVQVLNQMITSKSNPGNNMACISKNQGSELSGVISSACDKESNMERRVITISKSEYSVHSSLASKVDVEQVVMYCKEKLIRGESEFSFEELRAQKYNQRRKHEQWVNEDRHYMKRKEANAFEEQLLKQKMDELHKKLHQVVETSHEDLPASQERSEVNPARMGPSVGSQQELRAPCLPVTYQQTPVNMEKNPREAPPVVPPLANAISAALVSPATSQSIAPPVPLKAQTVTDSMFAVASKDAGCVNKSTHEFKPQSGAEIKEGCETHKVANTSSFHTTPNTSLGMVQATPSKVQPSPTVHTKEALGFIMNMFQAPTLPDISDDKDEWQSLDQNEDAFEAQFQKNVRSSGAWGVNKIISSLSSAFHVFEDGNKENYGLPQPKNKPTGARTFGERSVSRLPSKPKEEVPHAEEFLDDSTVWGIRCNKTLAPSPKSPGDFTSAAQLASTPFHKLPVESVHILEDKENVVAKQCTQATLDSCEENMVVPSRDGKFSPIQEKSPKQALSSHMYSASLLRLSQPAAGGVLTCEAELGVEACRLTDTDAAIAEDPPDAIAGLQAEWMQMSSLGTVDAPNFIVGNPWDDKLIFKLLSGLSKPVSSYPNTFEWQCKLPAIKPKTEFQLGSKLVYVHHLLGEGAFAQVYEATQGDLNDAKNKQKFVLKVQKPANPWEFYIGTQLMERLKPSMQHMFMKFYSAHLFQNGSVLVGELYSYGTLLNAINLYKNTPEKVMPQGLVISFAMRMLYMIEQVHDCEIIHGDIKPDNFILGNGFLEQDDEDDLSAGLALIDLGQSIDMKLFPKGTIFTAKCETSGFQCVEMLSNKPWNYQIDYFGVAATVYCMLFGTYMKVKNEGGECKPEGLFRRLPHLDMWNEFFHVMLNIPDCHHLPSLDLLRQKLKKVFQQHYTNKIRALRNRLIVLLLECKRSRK
Summary of the method: as §1

Measured: binding result

B1: LZTR1-FLAG (other, human, UniProt Q8N653 1-840, looked up)
chain: MAGPGSTGGQIGAAALAGGARSKVAPSVDFDHSCSDSVEYLTLNFGPFETVHRWRRLPPCDEFVGARRSKHTVVAYKDAIYVFGGDNGKTMLNDLLRFDVKDCSWCRAFTTGTPPAPRYHHSAVVYGSSMFVFGGYTGDIYSNSNLKNKNDLFEYKFATGQWTEWKIEGRLPVARSAHGATVYSDKLWIFAGYDGNARLNDMWTIGLQDRELTCWEEVAQSGEIPPSCCNFPVAVCRDKMFVFSGQSGAKITNNLFQFEFKDKTWTRIPTEHLLRGSPPPPQRRYGHTMVAFDRHLYVFGGAADNTLPNELHCYDVDFQTWEVVQPSSDSEVGGAEVPERACASEEVPTLTYEERVGFKKSRDVFGLDFGTTSAKQPTQPASELPSGRLFHAAAVISDAMYIFGGTVDNNIRSGEMYRFQFSCYPKCTLHEDYGRLWESRQFCDVEFVLGEKEECVQGHVAIVTARSRWLRRKITQARERLAQKLEQEAAPVPREAPGVAAGGARPPLLHVAIREAEARPFEVLMQFLYTDKIKYPRKGHVEDVLLIMDVYKLALSFQLCRLEQLCRQYIEASVDLQNVLVVCESAARLQLSQLKEHCLNFVVKESHFNQVIMMKEFERLSSPLIVEIVRRKQQPPPRTPLDQPVDIGTSLIQDMKAYLEGAGAEFCDITLLLDGHPRPAHKAILAARSSYFEAMFRSFMPEDGQVNISIGEMVPSRQAFESMLRYIYYGEVNMPPEDSLYLFAAPYYYGFYNNRLQAYCKQNLEMNVTVQNVLQILEAADKTQALDMKRHCLHIIVHQFTKVSKLPTLRSLSQQLLLDIIDSLASHISDKQCAELGADI
notes: Expressed in HEK 293T, HeLa or U87 cells; used as cell lysate; also called LZTR1 wild type-FLAG; LZTR1 WT; not shown: FLAG tag at the C-terminus
binds: VPS18 | TRIO | BUB1

Source: patent US20250262210A1 (TRUSTEES OF COLUMBIA UNIVERSITY IN THE CITY OF NEW YORK, published 2025)
